The results in this text go back to PMC3124080.

For this test, the target named is Trypanosoma cruzi uridine phosphorylase (Trypanosoma cruzi). Nature of the test: SEC.

As for “Trypanosoma cruzi uridine phosphorylase (enzyme)”, the stoichiometry N was found to be 2.
